Laboratory results taken from the supplement of paper PMC12042874.
± gives the uncertainty stated by the source.

Test: amyloid nucleation score (Sup35N fusion, yeast selection) (log enrichment); library NNK1; higher = more nucleation; inactive = no reads after selection
Method in brief: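 The nucleation score, computed with DiMSum, is the log enrichment of output over input reads, centred on the mode score of non-aggregating sequences. Sequences with under 100 input reads were dropped. Reads were generated by Illumina sequencing of plasmid inserts from psi-negative yeast with Sup35N fused to peptides of 20 random codons, induced with 100 μM copper sulfate for 24 hours and grown 7 days at 30°C on medium lacking adenine and uracil.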

Substance	amyloid nucleation score
ERLGLRRFTIIISRQAQV	0.03 ± 0.34
SLDEVARVLCP	-0.21 ± 0.58
YSLSRCSSEDMSYVYWCSRS	0.119 ± 0.32
RACYTCVPVSGSRMSVRNLW	3.19 ± 0.13
TQVIAPVVCMAIDYCANITV	4.96 ± 0.099
RYTLFCLSVNYWWTFWLDSV	1.61 ± 0.58
VSVFDVWRMQCGNSLVKEGG	-0.088 ± 0.42
TGKDLRAEHENFVARNHFPM	-0.954 ± 1.4
SGDIKSFWMERCFCLVTHGK	-0.115 ± 0.57
CSAYGKNTMGSESPVMSMAS	0.368 ± 0.72
DSVLNGSFAACLDWDALPGQ	0.272 ± 0.54
KDEARRGLTLCPTGKDILDY	-0.026 ± 0.47
MFGGYRSC	0.159 ± 1.2
RYMWYLVCS	0.026 ± 0.7
LSIGFGNPVAS	-0.312 ± 0.29
MSEFADTIMIVNGCGWRVVR	-0.039 ± 0.26
GPFSDVAGQKVRCGRLVATR	-0.212 ± 0.66
HYGAKCGGPRAWGRDTDR	0.156 ± 0.69
YEALQ	-0.703 ± 1
FVLLELVSVVRVLHYDGIWD	0.079 ± 0.51
WFAAHPYFNWDGGIRY	-1.41 ± 2.7
FLGMIFTELSINMKVSRRP	-1.12 ± 1.2
YDLGMLLF	0.812 ± 0.77
SQIYTFVDLFLSS	1.26 ± 0.68
VGQLSTFCLGILIVLSVN	0.338 ± 0.18

Substance	amyloid nucleation score
RMAWMEGRPGDRMSRYGTSC	inactive
QMREFCLNACSINPRFLWAS	1.51 ± 0.31
SKDYVDL	inactive
RMGVA	0.644 ± 0.92
VETSGVILVESWCFMLGIDV	0.724 ± 0.75
VWTMIYSTCGSDFYFCSVEL	0.715 ± 0.47
QPNNGVPQIMDTV	0.184 ± 0.43
MIWPDGQRLMRPTLRMYKTS	0.279 ± 0.36
AVCSMKKSVMYELNVGFTYR	inactive
QCRQAQLVLFGVSVWTGYVK	-0.083 ± 0.38
SCACRYSDLVWVINSLRTVA	0.46 ± 0.83
VKFKGTTLCYIFDMDFMHGI	0.948 ± 0.14
LMGNEL	-0.396 ± 0.4
PFWAGG	inactive
KWVKEALIA	-0.463 ± 0.73
SGAYATVPVYQEWLSQIKLL	0.327 ± 1
GRHRRSRRM	inactive
KNPRGENIFLPCLRMGKHLL	-0.776 ± 1.9
NLVWSYFLLGTDSYITTYDW	0.314 ± 0.79
ILMLKH	-0.484 ± 0.68
YLRRSGMLAFSSSHHR	1.15 ± 0.4
MWCLGLDIFRIRVYRCAGGG	-0.348 ± 0.28
HINFIYRLRSFLQSCKNFSS	-1.23 ± 2.1
QLLPISGKVWAVISSGLG	-0.029 ± 0.32
YKLPAAIDRMIVVQCNRPSI	-0.246 ± 0.61

Substance	amyloid nucleation score
SRRVQLYVLGFRGIKSGTFL	-0.066 ± 0.62
TTVKYLWLYLGFVLGQGVNG	-0.303 ± 0.25
KCYGVETTYALA	0.875 ± 0.97
IKDTGYYLHMIEQPDTLNLW	0.651 ± 0.53
NMYKSMNQSTE	-0.705 ± 0.26
VGHPKVFWDGVGSRTILERS	0.48 ± 0.74
IADPNRFFTLLNLPMQCREA	inactive
ASVAHLCGQLTVDTGFRITG	0.138 ± 0.33
GENYLGCLGSFWKTSNTCCP	-0.881 ± 1.4
SLVMGVYRRQCRGNPRAMSK	1.21 ± 0.44
SSCYDRVLYAPDRRR	1.23 ± 0.45
SNWTPCQSESP	-0.311 ± 0.55
DMNLRVDLYMKFEWSGLVER	0.109 ± 0.36
RGVARWRCGNKICNA	0.078 ± 0.47
YMSVWFVTVSMDCVGRNSRT	4.19 ± 0.058
RFRVVNSCSTKPLLNEKLFG	inactive
RGYLAWLSGDQA	1.68 ± 0.52
TLRVLFFKCLGHIRLLVRGF	-1.64 ± 2.7
RRPIGMACGDGRVYFWDHTA	-0.036 ± 0.47
PWNLLGKIVTFV	1.09 ± 0.94
PPQLHRVEFLIVSGR	-0.859 ± 1.4
RSVPLFDHPWNRVTLRFSIL	0.714 ± 0.47
TPAFTIFSWAIGEDYLFVEM	0.777 ± 0.9
HQNRDIIMMMSFCAGNTGYK	4.98 ± 0.12
RVWCKWH	0.027 ± 1.4

Substance	amyloid nucleation score
SFGVSNTSYWTAEKVVGYAT	0.501 ± 0.7
PICCLLQLLGDSGWMCCSAW	6.538 ± 0.061
LNHLVSPKALQN	0.017 ± 0.4
IIEIFVDIRYHFMY	1.91 ± 0.38
KKYVMSNVTCVE	0.934 ± 0.47
IGACLRQSLVISYDVIFMLL	inactive
CWMHFPYQVESDGQTNRAFD	0.041 ± 0.34
GLYLNGPVINMWVVVASREV	7.512 ± 0.044
MTGINYRAVRCAEGCRASRR	0.216 ± 0.29
KSQVVMRDVEPATNIV	-0.153 ± 0.69
VFLISY	0.199 ± 0.42
YPLPV	0.376 ± 0.28
EGNSDCLWVGYGASMTRWVR	0.258 ± 0.88
VTLQQRLCSFYMLIVEFASS	0.045 ± 0.43
FRSLMLLDFTYHVVSGLRYK	-0.609 ± 1.9
VVLKNHRHSVLSWWLTS	-0.622 ± 0.56
TVLSSFLLKLRLTIVSCFLR	-0.082 ± 0.65
INSQSTATN	0.593 ± 0.31
ELGSGFQFVYSYS	-0.465 ± 0.46
PFRGDGIGYISVGGWFVQDN	-1.51 ± 2.4
CRRRPSSDELSVLWDAEGRY	0.009 ± 0.66
RVRILITYM	1.18 ± 0.17
LWVFS	0.762 ± 0.7
LIKKKSNSIYMI	-0.062 ± 0.3
KHAYFSLIRVSNWKWNSVRV	-0.027 ± 0.56

Substance	amyloid nucleation score
LFYCRALRYFASHLDASNMH	-1.09 ± 0.84
RDAVFGPAGVLQI	-0.122 ± 1.6
SKEESPMTFVWILGGHSELS	-0.448 ± 0.32
MTFVMHIAWG	1.55 ± 0.26
NFARDLKRHVRMG	0.461 ± 0.35
YVFSCTGLNR	-1.03 ± 1
LEFRPRFSSISYHMIMFVGH	inactive
RDSLESTVGVKMGNASGVCR	-0.818 ± 1.6
TCRLKLVFLNVTVKSKFCVL	-0.362 ± 0.76
MWRKHR	-0.543 ± 0.65
WDMAFSVALGLRYMRCGLKL	-0.286 ± 0.35
ADDVCSCQGFLYRDVFCATD	0.531 ± 0.93
HPLVGQELKDWNNELYVHVL	0.534 ± 0.79
SRDRNLVGLKLHVTVNKDVF	-1.41 ± 2.4
GRQGYMAYFVMALLLCIFTH	0.128 ± 0.48
DGCSRFRREGAEVYQRMGIG	1.04 ± 0.85
RWVPYHFV	2.77 ± 0.13
IRMVFAMVSYSCDYRATAGT	2.65 ± 0.18
IMFTWWEYRLRSLEV	-0.334 ± 0.48
KRNRVAIILWICNNYYEWNN	-0.747 ± 0.39
VWSGEE	-0.344 ± 0.38
CKRWRSILVKSSRSIMGTDV	-0.171 ± 1.1
HICSRDVLLRQY	1.41 ± 0.8
VPHLNGCISFWNVSVGYKVP	5.44 ± 0.077
TSFYTGFWCPA	-0.232 ± 0.57

Substance	amyloid nucleation score
SDALTKMDLITLRDKI	inactive
YLASFMNLAISVGLVDGLCG	-1.29 ± 1.7
VCLQW	0.386 ± 0.64
NDRSFYQITKILHPRDASQN	-1.08 ± 0.55
IRKFLFLFNALLSAPLLFHK	-0.2 ± 1.1
RYKNSIDSESVINRLLWDAT	0.431 ± 0.8
MMFAKDSI	0.372 ± 0.47
VDRLNFLSLSYENFSGSSGE	4.7 ± 0.064
TLVLSLAHPCASGNKPDKSG	0.863 ± 0.32
GRGKPMTLASKFIAGRFVF	0.521 ± 0.97
FEHVSMWIVCFVKNLKYRIR	-0.86 ± 0.86
FMQLTYRMCGSPSIRVNGVL	0.685 ± 0.34
VKSGALKYRKIGAYGTGSRL	0.728 ± 1.2
SPSYQRCLQMLEKIWKDLNH	0.497 ± 0.31
SCILFY	1.75 ± 0.14
APSSKF	0.062 ± 1.1
SVSYVELLGAFIKGLGIIYF	-0.999 ± 0.63
SVGLTFNGGVYCSHVERTSW	1.93 ± 0.19
NWHPISVGSFYIVGLMRHRR	4.03 ± 0.11
CGYMLVYDAHMHRSLLCAC	-0.285 ± 0.26
YALRVSR	-0.346 ± 0.43
IFLNKRSTSAWFSMLLLFLS	1.4 ± 0.14
LCITQKYRFSLHNLHQPTDW	1.93 ± 0.45
QGSIHY	inactive
YMLGREMS	inactive

Substance	amyloid nucleation score
TFPGEWHWERTIVIVPNFFH	2.03 ± 0.15
QLVTVADLLTKFPGILSWSG	inactive
NLINVFTLKWFDITL	5.686 ± 0.053
FKSTPVFKQWRNGGTDGLTG	-0.958 ± 1.5
SYGDQSVEKSLRSTATPDPQ	0.105 ± 0.35
GCVGGWSVEFITLGYWSQRG	1.17 ± 0.88
ICVCKDVCGLYRCLLGTGGS	1.13 ± 0.57
RCHESARKVTSGMCCSGWC	4.12 ± 0.088
LVITIDARRVAVTLIYMKMR	2.37 ± 0.15
ILLRLGDVVRIGLVFVTSFG	0.421 ± 0.61
WLLLNDSFSTRHLFMPRSKW	-0.381 ± 0.75
GSDVREWLVQQSKSMFLWVW	-0.226 ± 0.47
CKKSCGSVRSNASLTKDWSN	-0.097 ± 0.28
RYMLHDLIFPVSVVMRVSYE	0.92 ± 0.22
RVLCCRYN	0.19 ± 0.51
VDNMLPFMGDYWDLFYGFLL	-0.217 ± 0.31
GATIIKSFLDRNSTTWLSLV	-0.451 ± 0.63
RVLVDPRSSFVYSTRFDDD	0.2 ± 0.45
LSMRIQAQMIVAWPTKHPIL	4.99 ± 0.12
VVMQACNLNMCFMNGCRRGC	7.304 ± 0.045
YMHSGGQGLLCIQVSYTMSF	-0.503 ± 0.83
